According to patent publication US20200109196A1 (MOGAM INSTITUTE FOR BIOMEDICAL RESEARCH, published 2020):

T1: recombinant CEACAM1 protein (UniProt P13688 35-428, limits assumed)
T1 sequence (looked up): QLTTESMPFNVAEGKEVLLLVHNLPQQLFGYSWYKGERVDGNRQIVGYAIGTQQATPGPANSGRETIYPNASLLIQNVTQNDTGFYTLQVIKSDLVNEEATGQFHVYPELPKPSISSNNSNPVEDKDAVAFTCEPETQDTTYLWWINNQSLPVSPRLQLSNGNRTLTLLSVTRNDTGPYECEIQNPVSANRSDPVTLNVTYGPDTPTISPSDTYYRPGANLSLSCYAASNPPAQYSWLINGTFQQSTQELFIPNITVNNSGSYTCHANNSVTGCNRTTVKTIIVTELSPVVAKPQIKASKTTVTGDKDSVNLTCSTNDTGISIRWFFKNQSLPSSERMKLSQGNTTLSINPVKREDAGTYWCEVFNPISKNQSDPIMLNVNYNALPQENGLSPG

T2: CEACAM6 expressed on the surface of HEK293 cells (human, UniProt P40199 35-320)
T2 construct: whole, on cells; GFP-tagged clone; also called CEACAM6-GFP
T2 sequence (looked up): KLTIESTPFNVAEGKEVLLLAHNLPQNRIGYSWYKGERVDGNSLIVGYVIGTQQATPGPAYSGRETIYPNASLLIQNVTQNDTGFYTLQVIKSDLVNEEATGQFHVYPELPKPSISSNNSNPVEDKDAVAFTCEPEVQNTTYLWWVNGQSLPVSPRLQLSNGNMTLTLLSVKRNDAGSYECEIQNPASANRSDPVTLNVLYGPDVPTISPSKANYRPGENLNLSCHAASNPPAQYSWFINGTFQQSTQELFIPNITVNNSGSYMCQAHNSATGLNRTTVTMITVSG

T3: human CEACAM1 expressed on the cell surface (CEACAM1-Jurkat T cells); HEK293 cells transfected with human … (human, UniProt P13688 35-526)
T3 construct: whole, on cells; also called CCM1
T3 sequence (looked up): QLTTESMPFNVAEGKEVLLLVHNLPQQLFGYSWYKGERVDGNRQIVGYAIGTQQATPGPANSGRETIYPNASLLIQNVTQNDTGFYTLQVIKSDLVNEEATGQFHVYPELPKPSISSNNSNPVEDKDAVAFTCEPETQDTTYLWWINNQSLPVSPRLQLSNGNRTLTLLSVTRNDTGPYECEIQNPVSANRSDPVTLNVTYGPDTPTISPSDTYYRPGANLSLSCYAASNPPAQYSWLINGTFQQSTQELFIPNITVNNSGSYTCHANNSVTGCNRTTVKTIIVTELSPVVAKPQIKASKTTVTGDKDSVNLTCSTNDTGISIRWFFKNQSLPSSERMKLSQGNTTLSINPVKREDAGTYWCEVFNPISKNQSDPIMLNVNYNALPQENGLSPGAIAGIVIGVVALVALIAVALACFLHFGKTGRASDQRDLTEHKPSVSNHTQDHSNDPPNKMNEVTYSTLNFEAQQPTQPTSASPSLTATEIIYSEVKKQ


Tests used:
[1] = target: T1, recombinant CEACAM1 protein; assay: ELISA, coated recombinant CEACAM1, anti-human IgG-HRP detection
Description: Then, each well was washed 3 times with a washing buffer prepared by diluting 10 μl of Tween 20 (Sigma-Aldrich; Cat. No. P9146) in 990 μl of PBS.

[2] = target: T2, CEACAM6 expressed on the surface of …; assay: flow cytometry on transfected HEK293 cells (GFP+ gate), PE goat anti-huIgG4 [a]
Description: HEK293 cells were added with 10 μg of each pEF1α-AcGFP-N1 vector (Clontech, Cat. No. 631973) as a control vector, CEACAM1, CEACAM3, CEACAM5, CEACAM6 and CEACAM8 plasmid vectors, followed by transfection under the condition of pulse voltage 1,100 V, pulse width 20 ms and pulse number 2. After 48 hours of transfection, GFP expression was confirmed by fluorescence microscopy. The cells were detached by treatment with 1 ml of TrypLE Express Solution (ThermoFisher Scientific; Cat. No. 12605010), resuspended in 9 ml of DMEM (Gibco, Cat. No. 11995-065) supplemented with 10% (v/v) FBS, and centrifuged at 1,200 rpm for 5 minutes, to remove the resulting supernatant.
After washing once with PBS, the cells were resuspended in a FACS buffer to obtain a concentration of 5×10⁵ cells/100 μl. Human Fc Block solution was added to the samples at 1 μl/sample, which were incubated at 4° C. for 10 minutes. The cells were treated with hulgG4 or one of the anti-CEACAM1 clones listed at 1 μg/5×10⁵ cells, which were incubated at 4° C. for 10 minutes. After washing with FACS buffer, the PE-labeled goat-anti-huIgG4 antibodies were diluted at a ratio of 1:200 in a FACS buffer, and added to the samples at 100 μl/sample, which were incubated at 4° C. for 30 minutes. The samples were filled with a FACS buffer up to 200 μl, and then centrifuged at 1,200 rpm for 5 minutes, to remove the resulting supernatant. The fixation buffer (300 μl) was added to resuspend the cells. The cells expressing GFP were selected in the FACS LSR-Fortessa device, and the expression of CEACAM members were evaluated respectively using the antibody specific to each CEACAM member (Table 3). Also, the binding of anti-CEACAM1 antibodies was evaluated by PE fluorescence channel and analyzed using the FlowJo software.

[3] = target: T3, human CEACAM1 expressed on the cell …; assay: flow cytometry on CEACAM1-Jurkat T cells; reference: the other clones (MFI 8,000)
Description: The CEACAM1-Jurkat T cells prepared above were treated with Fc block solution and incubated for 15 minutes. […] Herein, it is noted that the cell numbers were adjusted to 1×10⁵. The cells incubated with the antibodies were repeatedly subjected to the washing procedure of resuspending the cells in a FACS buffer and centrifuging the solution at 1,500 rpm.
PE-conjugated goat anti-human F(ab)₂; (Sigma; Cat. No. P8047)) was diluted in the FACS buffer at a volume ratio of 1:200, and then added to the cells at 100 μl/well. Cells were resuspended well and incubated at 4° C. for 30 minutes in a dark condition.
The cells incubated with the fixation buffer were repeatedly subjected to the washing procedure of resuspending the cells in a FACS buffer, centrifuging the solution at 1,500 rpm, and discarding the supernatant. The washed cells were resuspended in 200 μl of a FACS buffer, and the mean fluorescence intensities (MFIs) of the PE-labeled cells were monitored by a FACS LSR-Fortessa. All FACS analyses were conducted using the FlowJo software.

EC50 [1] | binding result [2] | fold MFI against the other clones [3] | Binder
0.35 nM | no binding | – | C25 (antibody, human IgG4 S228P, lambda, V domains shown, Made in ExpiHEK293F cells, protein A purified. huIgG4 is the isotype control and anti-huIgG4 the detection reagent; the isotype is not otherwise stated; also called anti-CEACAM1 antibody C25) VH: EVQLLESGGGLVQPGGSLRLSCAASGFTFSNYAMSWVRQAPGKGLEWVSVISHGGGSIYYADSVKGRLTISRDNSKNTLYLQMNSLRAEDTAVYYCARDPTKGYAPTFDYWGQGTLVTVSS VL: QSVLTQPPSASGTPGQRVTISCSGSSSNIGNNYVSWYQQLPGTAPKLLIYADSKRPSGVPDRFSGSKSGTSASLAISGLRSEDEADYYCGAWDASLNGYVFGGGTKLTVLG
– | – | 1.5 times | 4R9_H4-n20 (antibody, human IgG4 S228P, lambda, V domains shown, also called C25-derived clone 4R9_H4-n20) VH: EVQLLESGGGLVQPGGSLRLSCAASGFNFSNYAMSWVRQAPGKGLEWVSVISHGGGSIYYADSVKGRLTISRDNSKNTLYLQMNSLRAEDTAVYYCARDPTKGYAPTFDYWGQGTLVTVSS VL: QSVLTQPPSASGTPGQRVTISCSGSSSNIGNNYVSWYQQLPGTAPKLLIYADSRRPSGVPDRFSGSKSGTSASLAISGLRSEDEADYYCGAWDLSLNGYVFGGGTKLTVLG
